Laboratory results from publication PMC10665462 (2023).

Biological target: BTN3A1 BFI (JM+B30.2) (Homo sapiens, UniProt O00481)
Test: ITC

Chain of BTN3A1 BFI (JM+B30.2) (O00481 272-513): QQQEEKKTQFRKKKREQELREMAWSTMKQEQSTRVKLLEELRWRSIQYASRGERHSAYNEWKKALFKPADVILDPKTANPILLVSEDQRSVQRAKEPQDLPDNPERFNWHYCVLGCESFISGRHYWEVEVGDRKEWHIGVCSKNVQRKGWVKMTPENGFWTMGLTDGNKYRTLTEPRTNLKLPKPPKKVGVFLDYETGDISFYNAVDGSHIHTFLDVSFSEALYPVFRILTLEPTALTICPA

Row | Kd | Binder
1 | 0.78 µM | BTN2A1 ID271 (JM+B30.2) (protein, HMBPP) KLQKEKKILSGEKEFERETREIALKELEKERVQKEEELQVKEKLQEELRWRRTFLHAVDVVLDPDTAHPDLFLSEDRRSVRRCPFRHLGESVPDNPERFDSQPCVLGRESFASGKHYWEVEVENVIEWTVGVCRDSVERKGEVLLIPQNGFWTLEMHKGQYRAVSSPDRILPLKESLCRVGVFLDYEAGDVSFYNMRDRSHIYTCPRSAFSVPVRPFFRLGCEDSPIFICPALTGANGVTVPEEGLTLHRVGTHQSL
2 | 190 µM | BTN2A1 ID271 (JM+B30.2) (protein, 4-M-HMBPP) KLQKEKKILSGEKEFERETREIALKELEKERVQKEEELQVKEKLQEELRWRRTFLHAVDVVLDPDTAHPDLFLSEDRRSVRRCPFRHLGESVPDNPERFDSQPCVLGRESFASGKHYWEVEVENVIEWTVGVCRDSVERKGEVLLIPQNGFWTLEMHKGQYRAVSSPDRILPLKESLCRVGVFLDYEAGDVSFYNMRDRSHIYTCPRSAFSVPVRPFFRLGCEDSPIFICPALTGANGVTVPEEGLTLHRVGTHQSL
